Laboratory results reported in patent publication US20060257492A1, “Suspension of calcium phosphate particulates for local delivery of therapeutic agents” (DePuy Products, Inc., priority 2005, published 2006).

Key:
[1] = Osteocalcin adsorption, elution and dissolution test on biomimetic apatite (HPLC); assay type: physicochemical; details: 20 μg protein
Protocol: The test with osteocalcin was conducted by incubating biomimetic apatite prepared on Ti6Al4V substrates with phosphate buffered saline (PBS) containing 0.1 mg/mL (bovine serum albumin) BSA. […] Eighty five percent of the original protein (20 μg) is adsorbed by biomimetic apatite crystals within 3 hours of test. An elution test was designed to further test the affinity of biomimetic apatite to osteocalcin in PBS containing 0.1 mg/mL BSA was measured (FIG. 6). Only ˜6% of the originally applied protein (20 μg) was eluted out from the biomimetic apatite crystals after 20 hours of incubation.

[2] = TGF-β1 adsorption, elution and dissolution test on biomimetic apatite (HPLC); assay type: physicochemical
Protocol: A parallel study was designed for testing the interaction between biomimetic apatite mineral with TGF-β1 by using a sodium acetate buffer containing 0.1 mg/mL BSA. […] Fifty five percent of growth factor (20 μg) was adsorbed by biomimetic apatite crystallites after 4 hours. Ten percent additional protein was adsorbed in the next 20 hour.

| Substance | originally applied protein eluted out from the biomimetic apatite crystals ([1]; PBS containing 0.1 mg/mL BSA, after 20 hours of incubation) [%] | original protein adsorbed by biomimetic apatite crystals ([1]; PBS containing 0.1 mg/mL BSA, within 3 hours) | protein recovered after dissolution of the minerals in acid ([1]; minerals fully dissolved in acid) [%] | growth factor adsorbed by biomimetic apatite crystallites ([2]; 20 μg, sodium acetate buffer containing 0.1 mg/mL BSA, after 4 hours) | elution and dissolution profiles ([2]; compared with osteocalcin) | additional protein adsorbed ([2]; sodium acetate buffer containing 0.1 mg/mL BSA, in the next 20 hour) |
| --- | --- | --- | --- | --- | --- | --- |
| osteocalcin (YLYQWLGAPVPYPDPLEPRREVCELNPDCDELADHIGFQEAYRRFYGPV; UniProt P02818 52-100, looked up) | ~6 | Eighty five | ~64 |  |  |  |
| transforming growth factor-beta-1 [TGF-β1] |  |  |  | Fifty five | very similar to those of osteocalcin | Ten |
